From patent US20050181450A1 (published 2005)

B1: GST-Iab (GST fusion of amino acids 1-343 of mouse IP3R1) (receptor)
chain: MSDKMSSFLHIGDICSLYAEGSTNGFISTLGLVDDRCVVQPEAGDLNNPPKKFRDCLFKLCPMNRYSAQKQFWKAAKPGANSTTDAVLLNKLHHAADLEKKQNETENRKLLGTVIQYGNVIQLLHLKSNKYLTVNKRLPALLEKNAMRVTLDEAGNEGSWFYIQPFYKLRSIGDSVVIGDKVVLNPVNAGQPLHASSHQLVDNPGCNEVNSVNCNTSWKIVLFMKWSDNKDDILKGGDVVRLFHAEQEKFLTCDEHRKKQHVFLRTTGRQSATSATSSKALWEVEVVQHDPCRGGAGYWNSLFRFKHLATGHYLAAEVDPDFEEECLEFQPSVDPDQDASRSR
notes: Expressed in Escherichia coli; not shown: glutathione S-transferase (GST) tag of vector pGEX-KG
B2: K508A (site-directed mutant of GST-IbIIa, lysine 508 of IP3R1 substituted with alanine) (receptor)
chain: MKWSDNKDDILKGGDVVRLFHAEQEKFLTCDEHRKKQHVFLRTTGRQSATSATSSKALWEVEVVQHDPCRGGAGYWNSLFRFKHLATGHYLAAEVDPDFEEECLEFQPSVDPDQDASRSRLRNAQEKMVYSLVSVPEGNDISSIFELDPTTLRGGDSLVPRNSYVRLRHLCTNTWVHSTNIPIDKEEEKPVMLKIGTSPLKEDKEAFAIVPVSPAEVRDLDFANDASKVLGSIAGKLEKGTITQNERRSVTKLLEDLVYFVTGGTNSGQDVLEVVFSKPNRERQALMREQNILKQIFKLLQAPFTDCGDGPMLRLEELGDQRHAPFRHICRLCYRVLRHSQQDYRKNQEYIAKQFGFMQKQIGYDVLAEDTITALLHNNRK
notes: not shown: The GST carrier at the N end and its vector linker
B3: GST-IV (GST fusion of amino acids 1553-1943 of mouse IP3R1) (receptor)
chain: DLDSQVNNLFLKSHNIVQKTALNWRLSARNAARRDSVLAASRDYRNIIERLQDIVSALEDRLRPLVQAELSVLVDVLHRPELLFPENTDARRKCESGGFICKLIKHTKQLLEENEEKLCIKVLQTLREMMTKDRGYGEKQISIDESENAELPQAPEAENSTEQELEPSPPLRQLEDHKRGEALRQILVNRYYGNIRPSGRRESLTSFGNGPLSPGGPSKPGGGGGGPGSSSTSRGEMSLAEVQCHLDKEGASNLVIDLIMNASSDRVFHESILLAIALLEGGNTTIQHSFFCRLTEDKKSEKFFKVFYDRMKVAQQEIKATVTVNTSDLGNKKKDDEVDRDAPSRKKAKEPTTQITEEVRDQLLEASAATRKAFTTFRREADPDDHYQSGE
notes: as for B1
B4: IRBIT (IP3R-binding protein released with inositol 1,4,5-trisphosphate) in the high salt extract of mouse cerebellar crude microsome (other)
chain: SMPDAMPLPGVGEELKQAKEIEDAEKYSFMATVTKAPKKQIQFADDMQEFTKFPTKTGRRSLSRSISQSSTDSYSSAASYTDSSDDEVSPREKQQTNSKGSSNFCVKNIKQAEFGRREIEIAEQDMSALISLRKRAQGEKPLAGAKIVGCTHITAQTAVLIETLCALGAQCRWSACNIYSTQNEVAAALAEAGVAVFAWKGESEDDFWWCIDRCVNMDGWQANMILDDGGDLTHWVYKKYPNVFKKIRGIVEESVTGVHRLYQLSKAGKLCVPAMNVNDSVTKQKFDNLYCCRESILDGLKRTTDVMFGGKQVVVCGYGEVGKGCCAALKALGAIVYITEIDPICALQACMDGFRVVKLNEVIRQVDVVITCTGNKNVVTREHLDRMKNSCIVCNMGHSNTEIDVTSLRTPELTWERVRSQVDHVIWPDGKRVVLLAEGRLLNLSCSTVPTFVLSITATTQALALIELYNAPEGRYKQDVYLLPKKMDEYVASLHLPSFDAHLTELTDDQAKYLGLNKNGPFKPNYYRY
notes: Endogenous protein extracted with 500 mM NaCl from crude microsome of mouse cerebellum, not purified; sites not determined; also called IRBIT in the high salt extract
B5: GST-Ia (GST fusion of amino acids 1-225 of mouse IP3R1) (receptor)
chain: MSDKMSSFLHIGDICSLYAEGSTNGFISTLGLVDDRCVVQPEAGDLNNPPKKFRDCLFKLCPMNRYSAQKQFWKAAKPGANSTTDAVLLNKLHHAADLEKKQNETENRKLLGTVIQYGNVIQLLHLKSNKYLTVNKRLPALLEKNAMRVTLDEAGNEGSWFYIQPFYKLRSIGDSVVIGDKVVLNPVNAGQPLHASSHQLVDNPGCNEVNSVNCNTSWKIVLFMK
notes: as for B1

What was measured:
[1] = target: B4; experiment: GST pulldown from high salt extract, Western blot with anti-IRBIT antibody
Text: (§1) FIG. 9A is the schematic representation of the structure of mouse IP₃R1 and the recombinant GST fusion proteins used in this study. The IP₃ binding core region is indicated with a gray box. Putative membrane-spanning regions are indicated with solid vertical bars. Roman numbers I to V indicate the domain structure of IP₃R1 determined by the limited trypsin digestion (51). Numbers above the bars represent corresponding amino acid residue numbers. […] The high salt extract of crude microsome obtained from mouse cerebella was incubated with GST fusion proteins shown in (A). Bound proteins were pulled down with glutathione-Sepharose, eluted with glutathione, and analyzed by Western blotting using anti-IRBIT antibody. […] Bound proteins were pulled down with glutathione-Sepharose, eluted with glutathione, and then analyzed by Western blotting using anti-IRBIT antibody (upper panel). GST fusion proteins pulled down with glutathione-Sepharose were stained with Coomassie Brilliant Blue (lower panel).
(§2) For the determination of the IRBIT binding region and the critical amino acid residue of IP₃R1, the diluted high salt extract was subjected to pulldown assay as described above with 100 pmol of GST, GST-EL, GST-Ia, GST-Iab, GST-IbIIa, GST-IIab, GST-IIbIIIa, GST-IIIab, GST-IV, GST-IV-Va, K508A or R441Q, and analyzed by Western blotting with anti-IRBIT antibody.

[2] = target: B4; experiment: GST pulldown from the high salt extract, Western blot with anti-IRBIT antibody
Text: as §1, §2

[3] = target: GST-EL (GST-IP3R1 (1-2217), GST fusion of the N-terminal 2217 amino acid residues of mouse IP3R1) (mouse, UniProt P11881 1-2217); experiment: cell-based or functional assay
[4] = target: T1, GST-IIIab (GST fusion of amino acids 916-1581 of mouse IP3R1) (mouse, UniProt P11881 916-1581); experiment: GST pulldown from the high salt extract, Western blot with anti-IRBIT antibody
T1 construct: Expressed in Escherichia coli; not shown: glutathione S-transferase (GST) tag of vector pGEX-KG
Text: as §1, §2

[5] = target: T2, GST-IIbIIIa (GST fusion of amino acids 600-1248 of mouse IP3R1) (mouse, UniProt P11881 600-1248); experiment: as above
T2 construct: Expressed in Escherichia coli; not shown: glutathione S-transferase (GST) tag of vector pGEX-KG
Text: as §1, §2

[6] = target: T3, GST-IV-Va (GST fusion of amino acids 1593-2217 of mouse IP3R1) (mouse, UniProt P11881 1593-2217); experiment: as above
T3 construct: Expressed in Escherichia coli; not shown: glutathione S-transferase (GST) tag of vector pGEX-4T-1
Text: as §1, §2

[7] = target: T4, GST-IIab (GST fusion of amino acids 341-923 of mouse IP3R1) (mouse, UniProt P11881 341-923); experiment: GST pulldown from high salt extract, Western blot with anti-IRBIT antibody
T4 construct: Expressed in Escherichia coli; not shown: glutathione S-transferase (GST) tag of vector pGEX-KG
Text: as §1, §2

T4 sequence (P11881 341-923): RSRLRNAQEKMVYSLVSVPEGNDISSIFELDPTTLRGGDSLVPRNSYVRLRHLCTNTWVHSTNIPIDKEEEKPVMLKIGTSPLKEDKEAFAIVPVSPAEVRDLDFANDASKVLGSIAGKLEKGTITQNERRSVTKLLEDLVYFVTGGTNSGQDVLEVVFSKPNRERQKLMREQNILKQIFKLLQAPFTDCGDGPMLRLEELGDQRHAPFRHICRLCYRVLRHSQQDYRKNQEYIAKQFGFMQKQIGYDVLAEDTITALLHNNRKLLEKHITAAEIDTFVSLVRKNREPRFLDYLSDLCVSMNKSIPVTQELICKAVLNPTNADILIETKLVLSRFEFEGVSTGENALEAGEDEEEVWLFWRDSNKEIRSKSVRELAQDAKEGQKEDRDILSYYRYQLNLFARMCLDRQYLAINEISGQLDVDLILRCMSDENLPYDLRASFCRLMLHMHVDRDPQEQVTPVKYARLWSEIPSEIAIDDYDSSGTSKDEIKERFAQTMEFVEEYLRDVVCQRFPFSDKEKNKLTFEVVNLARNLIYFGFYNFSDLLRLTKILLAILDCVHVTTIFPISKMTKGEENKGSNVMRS
GST-EL (GST-IP3R1 (1-2217), GST fusion of the N-terminal 2217 amino acid residues of mouse IP3R1), sequence (P11881 1-2217 N1264K): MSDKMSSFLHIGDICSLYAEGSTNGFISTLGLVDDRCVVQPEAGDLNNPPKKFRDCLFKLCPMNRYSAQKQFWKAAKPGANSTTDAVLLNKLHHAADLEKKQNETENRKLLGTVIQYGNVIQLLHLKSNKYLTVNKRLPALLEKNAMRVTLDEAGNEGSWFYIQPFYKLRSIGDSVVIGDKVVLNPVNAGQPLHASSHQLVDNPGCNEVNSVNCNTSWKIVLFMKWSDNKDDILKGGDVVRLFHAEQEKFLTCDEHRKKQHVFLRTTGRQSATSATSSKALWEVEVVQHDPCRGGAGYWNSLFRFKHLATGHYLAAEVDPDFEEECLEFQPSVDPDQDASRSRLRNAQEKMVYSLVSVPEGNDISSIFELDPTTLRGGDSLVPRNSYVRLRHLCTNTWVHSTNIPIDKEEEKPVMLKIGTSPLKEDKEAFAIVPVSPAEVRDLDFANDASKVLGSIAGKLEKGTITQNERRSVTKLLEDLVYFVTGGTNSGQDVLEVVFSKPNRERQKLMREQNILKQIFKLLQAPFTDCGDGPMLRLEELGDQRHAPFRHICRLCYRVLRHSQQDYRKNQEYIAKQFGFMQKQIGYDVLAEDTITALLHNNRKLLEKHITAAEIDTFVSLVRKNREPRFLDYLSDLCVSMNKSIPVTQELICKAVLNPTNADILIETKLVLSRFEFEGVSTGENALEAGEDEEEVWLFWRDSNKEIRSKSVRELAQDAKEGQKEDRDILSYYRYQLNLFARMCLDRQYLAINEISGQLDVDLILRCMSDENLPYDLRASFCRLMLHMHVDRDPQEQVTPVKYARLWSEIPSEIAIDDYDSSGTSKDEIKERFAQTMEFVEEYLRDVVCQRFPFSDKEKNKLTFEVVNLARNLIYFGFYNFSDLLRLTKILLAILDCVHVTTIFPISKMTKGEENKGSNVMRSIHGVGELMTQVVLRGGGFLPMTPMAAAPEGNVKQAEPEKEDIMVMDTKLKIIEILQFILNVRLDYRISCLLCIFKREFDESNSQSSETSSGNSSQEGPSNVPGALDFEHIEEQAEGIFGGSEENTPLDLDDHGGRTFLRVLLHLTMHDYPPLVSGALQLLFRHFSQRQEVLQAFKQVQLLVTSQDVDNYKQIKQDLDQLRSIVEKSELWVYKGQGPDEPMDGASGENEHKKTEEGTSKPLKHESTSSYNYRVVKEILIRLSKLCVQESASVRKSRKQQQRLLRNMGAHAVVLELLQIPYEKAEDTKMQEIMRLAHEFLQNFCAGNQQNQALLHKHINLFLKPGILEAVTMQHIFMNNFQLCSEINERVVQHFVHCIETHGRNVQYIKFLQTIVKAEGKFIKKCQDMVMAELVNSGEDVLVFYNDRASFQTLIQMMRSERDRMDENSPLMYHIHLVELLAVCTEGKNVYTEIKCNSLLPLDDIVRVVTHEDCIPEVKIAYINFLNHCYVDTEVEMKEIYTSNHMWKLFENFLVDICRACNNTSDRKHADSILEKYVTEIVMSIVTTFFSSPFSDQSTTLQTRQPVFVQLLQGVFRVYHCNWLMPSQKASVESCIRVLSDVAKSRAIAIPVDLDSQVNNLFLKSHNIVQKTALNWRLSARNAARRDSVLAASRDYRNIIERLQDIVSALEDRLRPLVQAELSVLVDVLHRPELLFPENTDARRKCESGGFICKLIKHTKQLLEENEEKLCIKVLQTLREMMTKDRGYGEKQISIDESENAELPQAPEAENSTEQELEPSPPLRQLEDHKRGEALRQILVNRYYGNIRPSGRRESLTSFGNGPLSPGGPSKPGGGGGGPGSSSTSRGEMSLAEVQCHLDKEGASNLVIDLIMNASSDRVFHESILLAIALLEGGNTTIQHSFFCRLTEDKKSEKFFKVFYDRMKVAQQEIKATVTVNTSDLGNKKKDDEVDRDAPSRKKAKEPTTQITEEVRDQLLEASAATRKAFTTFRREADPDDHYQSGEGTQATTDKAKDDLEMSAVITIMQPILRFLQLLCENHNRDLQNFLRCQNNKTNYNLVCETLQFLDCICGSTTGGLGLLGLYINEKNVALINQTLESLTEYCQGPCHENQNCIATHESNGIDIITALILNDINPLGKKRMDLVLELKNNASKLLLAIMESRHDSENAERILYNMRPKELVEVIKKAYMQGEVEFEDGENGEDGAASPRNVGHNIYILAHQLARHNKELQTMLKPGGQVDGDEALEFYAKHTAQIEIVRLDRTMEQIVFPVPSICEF
T2 sequence (P11881 600-1248): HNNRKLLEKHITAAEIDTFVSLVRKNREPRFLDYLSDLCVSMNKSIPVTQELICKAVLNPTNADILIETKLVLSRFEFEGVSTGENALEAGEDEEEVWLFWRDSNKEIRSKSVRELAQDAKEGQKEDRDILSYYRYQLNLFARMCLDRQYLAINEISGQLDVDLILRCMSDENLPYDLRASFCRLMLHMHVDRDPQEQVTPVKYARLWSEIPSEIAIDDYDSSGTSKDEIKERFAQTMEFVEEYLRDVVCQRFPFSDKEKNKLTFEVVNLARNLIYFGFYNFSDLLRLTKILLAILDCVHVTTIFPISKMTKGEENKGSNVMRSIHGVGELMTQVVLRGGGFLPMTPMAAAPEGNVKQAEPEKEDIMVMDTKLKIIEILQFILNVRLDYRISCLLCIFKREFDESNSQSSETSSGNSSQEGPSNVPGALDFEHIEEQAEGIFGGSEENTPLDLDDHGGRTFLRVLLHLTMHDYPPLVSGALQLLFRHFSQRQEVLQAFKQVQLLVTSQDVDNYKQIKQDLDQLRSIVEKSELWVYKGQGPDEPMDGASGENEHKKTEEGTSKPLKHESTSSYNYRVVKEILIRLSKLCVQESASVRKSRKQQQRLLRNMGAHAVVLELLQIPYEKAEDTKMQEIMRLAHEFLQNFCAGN
T3 sequence (P11881 1593-2217): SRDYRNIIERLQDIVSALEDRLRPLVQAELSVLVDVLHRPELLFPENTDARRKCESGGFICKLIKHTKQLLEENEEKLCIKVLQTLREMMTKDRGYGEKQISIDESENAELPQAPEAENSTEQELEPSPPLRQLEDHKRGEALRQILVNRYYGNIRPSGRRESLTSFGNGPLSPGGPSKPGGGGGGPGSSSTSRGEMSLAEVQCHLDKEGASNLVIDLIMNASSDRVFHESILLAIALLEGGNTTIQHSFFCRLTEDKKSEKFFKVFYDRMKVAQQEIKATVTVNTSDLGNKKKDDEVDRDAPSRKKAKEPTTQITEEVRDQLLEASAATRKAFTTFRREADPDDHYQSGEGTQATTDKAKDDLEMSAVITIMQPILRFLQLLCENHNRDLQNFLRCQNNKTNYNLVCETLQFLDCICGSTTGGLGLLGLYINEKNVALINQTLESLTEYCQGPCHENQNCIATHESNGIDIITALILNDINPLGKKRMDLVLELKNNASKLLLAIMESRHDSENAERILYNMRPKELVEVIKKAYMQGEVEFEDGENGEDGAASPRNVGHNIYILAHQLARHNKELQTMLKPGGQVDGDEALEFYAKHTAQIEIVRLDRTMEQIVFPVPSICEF

B1: no binding (tested: 100 pmol of GST fusion protein) [1].

B2: no binding (tested: 100 pmol of GST fusion protein) [1].

B3: no binding (tested: 100 pmol GST fusion protein) [2].

With B4 the “EC50 (IP3 concentration required for half (50%)-maximal dissociation of IRBIT from GST-EL)” value [3] was ~500 nM, the binding result [4] was “no binding (tested: 100 pmol GST fusion protein)” and the binding result [5] was “no binding (tested: 100 pmol GST fusion protein)”. B4: no binding (tested: 100 pmol GST fusion protein) [6]; no binding (tested: 100 pmol of GST fusion protein) [7].

B5: no binding (tested: 100 pmol GST fusion protein) [2].
